*1 amine or outer side, *2 acyl side, *3 side chain or, on linkers, in order; H or OH if unused. Bridges are numbered along the chain shown (N, C = ends). Primed or numbered codes have the meaning given here. Where no end group is shown, it is not given here. Side-chain parts run from the residue outwards. [ ]: non-standard residue; d: D form. The star is where a group is joined. dpeg″ = spacer —[CO(CH2)O(CH2)2O(CH2)NH]—, O=C(COCCOCN[*:1])[*:2]; dpeg = —[CO(CH2)O(CH2)2O(CH2)NH]— spacer, O=C(COCCOCN[*:1])[*:2]; C20 diacid = O=C(O)CCCCCCCCCCCCCCCCCCC(=O)*; γGlu = O=C(O)[C@H](CCC(=O)[*:2])N[*:1]; Aib = CC(C)(N)C(=O)O
B1: Compound A25 (peptide)
peptide: YSHGTFTSDYSKYLDK([γGlu-γGlu-dpeg″-C20 diacid])KYAEKFVKWLEEEPSSGAPPPS-OH
modifications: lactam 20-24
B2: Compound A24 (peptide)
peptide: YSHGTFTSDYSKYLDK([γGlu-γGlu-dpeg-C20 diacid])KYASEFV[Aib]WLESEPSSGAPPPS-OH
B3: Compound A28 (peptide)
peptide: YSHGTFTSDYSKYLDK([γGlu-γGlu-dpeg″-C20 diacid])KYAEKFVKWLESEPSSGAPPPS-OH
modifications: lactam 20-24
B4: Compound A32 (peptide)
peptide: YSHGTFTSDYSKYLDK([γGlu-γGlu-dpeg″-C20 diacid])KYAEKFVKWLEDEPSSGKPPPS-OH
modifications: lactam 20-24
B5: Compound A30 (peptide)
peptide: YSHGTFTSDYSKYLD[Aib]KYAQK([γGlu-γGlu-dpeg″-C20 diacid])FVKWLEDEPSSGAPPPS-OH
modifications: lactam 24-28
B6: Compound A26 (peptide)
peptide: YSHGTFTSDYSKYLDK([γGlu-γGlu-dpeg″-C20 diacid])KYAEKFVKWLEKEPSSGAPPPS-OH
modifications: lactam 20-24
B7: Compound A27 (peptide)
peptide: YSHGTFTSDYSKYLDK([γGlu-γGlu-dpeg″-C20 diacid])KYAEKFVKWLENEPSSGAPPPS-OH
modifications: lactam 20-24
B8: Compound A34 (peptide)
peptide: YSHGTFTSDYSKYLDK([γGlu-γGlu-dpeg″-C20 diacid])KYAEKFVKWLEDEPSSGAPPPS-NH2
modifications: lactam 20-24
B9: Compound A33 (peptide)
peptide: YSHGTFTSDYSKYLDK([γGlu-γGlu-dpeg″-C20 diacid])KYAEKFVKWLEDEPSSGSPPPS-OH
modifications: lactam 20-24
B10: Compound A31 (peptide)
peptide: YSHGTFTSDYSKYLDK([γGlu-γGlu-dpeg″-C20 diacid])KYAEKFVKWLEDEPSSGEPPPS-OH
modifications: lactam 20-24
B11: Compound A35 (peptide)
peptide: YSHGTFTSDYSKYLDK([γGlu-γGlu-dpeg″-C20 diacid])KYAEKFVKWLEDE-NH2
modifications: lactam 20-24

These binders were tested against human GLP-1 receptor (GLP-1R) (human, UniProt P43220 24-463) (assay: cell-based or functional assay).
Chain of human GLP-1 receptor (GLP-1R) (P43220 24-463): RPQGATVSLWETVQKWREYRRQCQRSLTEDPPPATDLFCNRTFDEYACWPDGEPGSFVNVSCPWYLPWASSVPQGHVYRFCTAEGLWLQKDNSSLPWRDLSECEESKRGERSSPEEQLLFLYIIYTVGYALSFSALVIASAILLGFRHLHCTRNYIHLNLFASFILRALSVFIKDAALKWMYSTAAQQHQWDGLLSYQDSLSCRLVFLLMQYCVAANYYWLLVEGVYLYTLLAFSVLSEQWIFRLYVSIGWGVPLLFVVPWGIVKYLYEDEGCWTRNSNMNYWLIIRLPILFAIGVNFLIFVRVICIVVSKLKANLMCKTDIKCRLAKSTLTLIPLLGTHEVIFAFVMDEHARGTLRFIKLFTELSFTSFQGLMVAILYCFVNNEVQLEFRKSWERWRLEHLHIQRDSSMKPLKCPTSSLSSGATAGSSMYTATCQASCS
With B1 the “pEC50, cAMP accumulation” value was < 9 pEC50 (-log M). With B2 the “pEC50, cAMP accumulation” value was < 9 pEC50 (-log M). With B3 the “pEC50, cAMP accumulation” value was < 9 pEC50 (-log M). For B4, the “pEC50, cAMP accumulation” value was < 9 pEC50 (-log M). With B5 the “pEC50, cAMP accumulation” value was < 9 pEC50 (-log M). For B6, the “pEC50, cAMP accumulation” value was < 9 pEC50 (-log M). For B7, the “pEC50, cAMP accumulation” value was < 9 pEC50 (-log M). In the case of B8, the “pEC50, cAMP accumulation” value is reported as < 9 pEC50 (-log M). With B9 the “pEC50, cAMP accumulation” value was < 9 pEC50 (-log M). With B10 the “pEC50, cAMP accumulation” value was < 9 pEC50 (-log M). B11 was tested, and the “pEC50, cAMP accumulation” value was < 9 pEC50 (-log M).

What follows are binders tested against human Glucagon receptor (GCGR) (human, UniProt P47871 26-477) (assay: cell-based or functional assay).
For B1, the “pEC50, cAMP accumulation” value was 11.9 pEC50 (-log M). In the case of B2, the “pEC50, cAMP accumulation” value is reported as 12.5 pEC50 (-log M). In the case of B3, the “pEC50, cAMP accumulation” value is reported as 11.7 pEC50 (-log M). With B4 the “pEC50, cAMP accumulation” value was 11.7 pEC50 (-log M). In the case of B5, the “pEC50, cAMP accumulation” value is reported as 12.5 pEC50 (-log M). With B6 the “pEC50, cAMP accumulation” value was 11.1 pEC50 (-log M). In the case of B7, the “pEC50, cAMP accumulation” value is reported as 12 pEC50 (-log M). For B8, the “pEC50, cAMP accumulation” value was 11.9 pEC50 (-log M). For B9, the “pEC50, cAMP accumulation” value was 11.9 pEC50 (-log M). With B10 the “pEC50, cAMP accumulation” value was 11.9 pEC50 (-log M). For B11, the “pEC50, cAMP accumulation” value was 11.9 pEC50 (-log M).

From patent publication US20240228572A1 (I2O THERAPEUTICS, published 2024)
